Measured values as given in the nanobody polyreactivity screen of Harvey et al. (2022).

Assay: yeast display, Sf9 membrane polyspecificity reagent, FACS + sequencing; frameworks hold sequencing errors
Method in brief: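 In a synthetic yeast display library (Saccharomyces cerevisiae BJ5465), nanobody expression was induced with galactose for 36–48 hours. FACS gates were set low and high (top ~1%) using anti-HA fluorescence for expression and streptavidin fluorescence for binding of the Sf9 membrane reagent. Each polyreactivity label is drawn from the gate of origin.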

Row | Sequence | polyreactivity (PSR sort gate)
1 | QVQLVESGGGLVQAGGSLRLSCAASGRIFPRYAMGWYRQAPGKERELVAAISWSGGRTYYADSVKGRFTISRDNAKNTVYLQMNSLKPEDTAVYYCAKYVGWYGSPGYDYWGQGTHVTVSS | low polyreactivity
2 | QDQLVESGGGLVQAGGSLRLSCAASYYAMGWYRQAPGKERELVASISSGGSTNYADSVKGRFTISRDNAKNTVYLQMNSLKPDDTAVYYCAAQYYATYGYWGQGTQVTVSS | low polyreactivity
3 | QVQLVESGGGLVQAGGSLRLSCAASGSIFQEYAMGWYRQAPGKERELVAAIDDSDGSTYADSVKGRFTISRDNAKTTVYLQMNSLKPDDTAVYYCNADIHATYDYWGQGTQVTVSS | low polyreactivity
4 | QVQLVESVGGLVQAGGSLRLSCAASGRIFYFNGMGWYRQAPGKERELVAAITISTGSTYYADSVKGRFTISRDNAKNTVYLQMNSLKPEDTAVYYCNVEFEYSGWKSFDYWGQGTQVTVSS | low polyreactivity
5 | QVQLVESGGGIVQAGGSHRLSCAASGSIFVSNAMGWYRQAPGKERELVAAISQSGGSTYYADSVKGRFTISRDTAKNTVYLQMNSLNPEDTAVYYCATPIRSGFRIYDYWGQGTQVTVSS | low polyreactivity
6 | QVQLVESGGGLVQAGGRLRLSCAASGSTFATYTMGWYRQPPGKERELVAAISVSGSRTYYADSVKGRFSISRDNAKNTVYLQMNSLKPEDTAVYYCAAANHKGSRMDYWGPGTQVTVSS | high polyreactivity
7 | QVQLVESGGGLVQAGGSLRLSCAASGRIFGVNAMGWYRQAPGKERELVAAITWSGGRTYYADSVKGRFTISRDNAKNTVFLLMNSMKQEDTAVYYCNTGLSGRRYGFGLSFCMDYWGQGTQVTVSS | low polyreactivity
8 | QVHLVESGGGLVQAGGSLRLSCAASGSIRVEYAMGWNRQAPGKERELVATITDSGNTNYADSVKGRFTISRDNAKNTVYLQMNSLKPEDTAVYYCAADAYPYYWLDQAFGYDYWGQGTQVTVSS | low polyreactivity
9 | QVQLVESGGGLVQAGGSLRLSCAASGGTFRVYTMGWYRQAPGKERELVAAIILRGGGTYYADSVKGRFTISRDNAKNPVYLQMNSLNPEDTAVYYCNARSGNRYGPRYDYWGQGTQVTVSS | high polyreactivity
10 | QVQLVESGGGLVQAGGSLRLSCAASGFTFINYAMGWYRQAPGKERELVAAISRRGGSTYYADSVKGRFTISRDNAKNTVYLQMNSLKPEDTAVYYCAARGYSYNYDYWGQGTQVTVSS | high polyreactivity
11 | QVQLVESGGGLVQAGGSLRLSCAASGSIFTRNAMGWYRQAPGKERELVATIRKNGASTTYADSVKGRFTISRDNAKNTVYLQMNSLKPEDTAVSYCARDHHTKYNYWGQGTQVTVSS | low polyreactivity
12 | QVQLVETGGGLVQAGGSLRLSCAASGFIGSNTMGWYRQAPGKERELVAAISWSGGSTYYADSVKGRFTISRDNAKNTVYLQMNSLKPEDSAVYYCAARRNSRARRTFGYWGQGTQVSVSS | high polyreactivity
13 | QVQLVESGGGLVQAGGSLRLSCAASGFIFRYYAMRWYRQAPGKERELVATITYGGTSTSYADSVKGRFTISRDNAKNTVYLQMNSLKPEDSAVYYCATDRVSRVRPFWNVWRSNYWGQGTQVTVSS | high polyreactivity
14 | QVQLVESGGGLVQAGGSLRLSCAASGSILFSYAMGWYIQAPGKEREFVAAITFSGGRTYYADSVKGRFTISRDNAKNTVYLQMNSLKPEDTAVYYCAASYLLIYTQGYRAEYEYWGQGTQVTVSS | low polyreactivity
15 | QVQLVESGGGLVQAGGSLRLSCPASGFILYPYAMGWYRQAPGKERELVAAITSRGGRTYYADSVKGRFTISRDNAKNTVYLQMNSLKPEDTAVYYCAAKRTSYYAPLKYYSWGQGTQVTVSS | high polyreactivity
16 | QVQLVESGGGLVQAGGSLRLSCAASGRIFMPYAMGWYRQAPGKERELVAAITCTGGSTYYADSVKGRFTISRDNAKNTVYLQMNSPKPEDTAVYYCNARRGYQQHRRDYWGQGTQVTVSS | low polyreactivity
17 | QVQLVESGGGLVQAGGSLRLSCAASGRIFKNYAMGWYRQAPGKERELVAAISWSGGRTYYADSVKGRFTISRDYAKNTVYLQMNSLKPEDTAVYYCASAARRGPTSIEPFGYGSWGQGTQVTVSS | high polyreactivity
18 | QVQLVESGGGLVQAGGSLRLSCAASGFIFYRNTMGWYRQAPGKEREFVAAIRWRGGSTYYADPVKGRFTISRDNAKNTVYLQMNSLKPEDTAVYYCAADTRPGYSGFEYWGQGTQVTVSS | high polyreactivity
19 | QVQLVESGGGLVQAGGSLRISCAASGRIFIYNAMGWYRQAPGKERELVAAINRSGVSTHYADSVKGRFTISRDNAKNTVYLQMNSLIPEDTAVYYCARTVYGARSYDYWGQGTQVTVSS | low polyreactivity
20 | QVHLVESGVGLVQAGGSLRLSCAAYGSTCGWYAMGWYRQAPGKERELVASITWDGGRTYYADSVKGRFTISRDNAKNTVYLQMISQKPEDTAVYYCAARGVSSPLNYWGQGNQVTVSS | low polyreactivity
21 | QVQLVESGGGLVQAGGSLRLSCAASGFIFRPYAMGWYRQAPGKERELVAALTGGGSTYYADSVKGRFTISRDNAKNTVYLQMNSLKPEDTAVYYCNADRRRRSGGFAAWHFQRNDYWGQGTQVSVSS | low polyreactivity
22 | QVQLVESGGGLVQAGGSLRLSCAASGSIFTPNAMGWYRQAPGKERELVAAISSSSDRTYYADSVKGRFTISRDNAKNTVYLQMNSLKPEETAVYYCAAYAQKRYYWGQGTQVTVSS | high polyreactivity

Row | Sequence | polyreactivity (PSR sort gate)
23 | QVQLVESGVGIVQAGGSHRLSCAASGRICVRNAMGWYRQAPGKERQLVAAISWSGGTNYADSVKGRFTISRDNAKNTVYLQMNSLKPEDTAVYYCAALSVWSYYTYYYWGQGTQVTVSS | high polyreactivity
24 | QVQLVESGGGLVQAGGSLRLSCDPSGYTLVDYAMGWYRQAPGKESELVAGISSGDSTYYADSVKGRFTISRDNAKNTVYLQMNSLKPEDTAVYYCNAGLKTIFLLYRWTLFDYWGQGTQVTVSS | high polyreactivity
25 | QVQLVESGGGLVQAGGSLRLSCAASGLTFARNAMGWYRQAPGKERELVAAISSRGGSTYYADSVKGRFTISRDNAKNTVYLQMNSLKPEDTAVYYCATSQVLRRDRYDYWGQGTQVTVSS | high polyreactivity
26 | QVQLVESGGGLVQAGGSLRLSCAASGRIFWQYAMGWYRQAPGKERELVAGITYRGGSTYYADSVKGRFTISRDNAKQTVYLLMNSLKPEDTAVYYCAADTYLSSQYSDRYGYDYWGQGTQVTVSS | high polyreactivity
27 | QVQLVESGGGLVQAGGSLRLSCAASGSTFQYYAMGWYRQEPGKEREFVASISGSGGSTNYADSVKGRFTISRDNAKNTVYLQMNSLKPEDTAVYYCAKEYVTEFQGYYYWGQGTQVTVSS | low polyreactivity
28 | QVQLVESGGGLVQAGGSLRLSCAASGITFYYYARGWYRQAPGKERELVAAINSGGITNYADSVKGRFTISRDNAKNTVFLQMNSLKPEDTAVYYCAASSGFRYRYGYWGQGTQVTVSS | high polyreactivity
29 | QVQLVESGGGLVQAGGSLRLSCAASGSIFPSNAMGWYRQAPGKERELVAAINRDGITNYADSVKGRFTISRDNAKNTVYLQMNSLKPEDTAVYYCAAEFAWQWWEYGYWGQGTQVTVSS | low polyreactivity
30 | QVQLVESGGGLVQAGGSLRLSCAASGRTFAYYAMGWYRQAPGKVRELVAAISSGGRTNYADSVKGRFTISRDNAKNTVYLQMNSLKPEDTAVYYCARKAAYQIYNGQYGGFGYGYWGQGTQVTVSS | high polyreactivity
31 | QVQLVESGGGLVQAGGSLRLSCAASGRTFGYNVMGWYRQAPGKERELVADITSTSSTSYADSVKGRFTISRDNAKNTVYLQMNSLTPEDTAVYYCAAYYYFFRRYSWRLSGDYWGQGTQVTVSS | low polyreactivity
32 | QVQLVESGGGLVQAGGSLRLSCASSGLIFYHYAMGWYRQAPGKERELVAAISWRGGTTYYADSVKGRFTISSDNAKNTVYLQMNSLKPEDTAVYYCNALLRSPGLGYDYWGQGTQVTVSS | high polyreactivity
33 | QVQLVESGGGLVQAGGSLRLSCAASGRIFIGNAMGWYRQAPGKERELVAAITQSGGSTYYADSVKGRFTISRDNAKNTVYLQMNSLKPEDTAVYYCSKALRRPRSGGNPGQAYGYWGQGTQVTVSS | low polyreactivity
34 | QVQLVESGGGLVQAGGSLRLSCAASGSIFRYYTMGWYRQAPGKERELVARISSSGSTNYADSVKGRFTISRDNAKNTVYLQMNSLKPEDTAVYYCAARSFSWAGYYYWGQGTQVTVSS | low polyreactivity
35 | QVQLVESGGGLVQAGGSLRLSCAASRFIFYYYALGWYRQAPGKERELVAAITWSGGSTYYADSVKGRFTISRDNAKNTVYLQMNSLKPEETAEYYCAVYSTEYKLLWGGISYDYWGQGTQVTVSS | low polyreactivity
36 | QVQLVESGGGLVQAGGSLRLSCAASGRIFKVYAMGWYRQAPGKERELVAAINWSTGSTYYADSVKGRFTISRDNAKNTVYLQMNSLKPEDTAVYYCAAKNLYSYDWGQGTQVTVSS | high polyreactivity
37 | QVQLVESGGGLVQAGGSLRLSCAASGFIFLYYAMGWYRQAPGKERELVADSSRGADTKYADSVKGRFTISRDNAKNNVYLQMNSLKPVDTAVYYCAARTGWPRVGFQFPAHVGFDYWGQGTQVTVSS | low polyreactivity
38 | QVQLVESGGGLVQAGGSLRLSCAASGSIFVPYAMGWYRQAPGKERELVAAISSRGGRTYYADSVKGRFTISRDNAKNTVYLQMNSLKPEDNAVYYCNKTAGSHIPRLEYWGQGTQVTVSS | low polyreactivity
39 | HVQLVESGGGLVQAGGRLRLSCAASGRTFWYYTMGWYRQAPGKDRELVAAITSVGSTYYADSVKGRFTISRDNAKNTVYLQMNSLKPEDTAVYYCAKLYSYTHQSFDHWGQGTQVTVSS | high polyreactivity
40 | QVQLVESGGGLVQAGGSLRLSCAASGSTYYPNAMGWYRQAPGKERELVAAISRGTRTKYADSVKGRFTISRDNAKNTVYLQMNSLKPEDTAVYYCAVLTYRGRFEYWGQGTQVTVSS | high polyreactivity
41 | QVQLVESGGGLVQAGGSLRLSCAASGRTRHGYTMGWYRQAPGKERELVATISSIGGSTYYADSLKGRFTISRDNAKNTVYLQMNSLKPEDTAVYYSNRGRARVIFSGMDYWGQGTQVTVSS | low polyreactivity
42 | QVQLVESGGGLVQAGRSLRLSCAASGSTFVNYAMGWYRQAPGKERELVAAISRSGGRTYYADSVKGRFTISRDNAKNTVYLQMNSLKPEDTAVYYCAPLLLSPEYGYWGQGTQVTVSS | high polyreactivity
43 | QVQLVESGGRLVQAGGSLRLLCAASGSTFRYYAMGWYRPAPGKERELLAAISRSGGRTYYADSVKGRFTMSRDNAKTTVYLQMKSLKPEDTAVYDCATRGDGSSWGDYDYWGQGTQVTVSS | high polyreactivity
